Sequences and labels used below:
B4: BAK (UniProt:Q16611, residues 16–185, C166S) (domain or fragment, human, UniProt Q16611 16-185, looked up)
chain: EPALPSASEEQVAQDTEEVFRSYVFYRHQQEQEAEGVAAPADPEMVTLPLQPSSTMGQVGRQLAIIGDDINRRYDSEFQTMLQHLQPTAENAYEYFTKIATSLFESGINWGRVVALLGFGYRLALHVYQHGLTGFLGQVTRFVVDFMLHHSIARWIAQRGGWVAALNLGN
notes: human BAK, residues 16-185, without the short disordered N-terminal segment and the C-terminal transmembrane helix; cysteine mutated to serine; Monomeric in buffer, oligomeric in detergent; the same construct in all experiments; Theoretical mass 19217.64 Da; also called 'wild-type' BAK (no cysteines); source: E. coli BL21(DE3), purified (chitin resin, intein self-cleavage with DTT, SEC); not …
B5: MCL-1 (UniProt:Q07820, residues 168–327, C286S) (domain or fragment, human)
chain: GSEEEEDELYRQSLEIISRYLREQATGAKDTKPMGRSGATSRKALETLRRVGDGVQRNHETAFQGMLRKLDIKNEDDVKSLSRVMIHVFSDGVTNWGRIVTLISFGAFVAKHLKTINQESSIEPLAESITDVLVRTKRDWLVKQRGWDGFVEFFHVEDLEGG
notes: extra GS left at the N-terminus after removal of the tag with thrombin; human MCL-1, residues 168-327, without the disordered N-terminus and the C-terminal transmembrane region; Theoretical mass 18409.74 Da; source: E. coli C41(DE3), purified (Ni-NTA, thrombin cleavage, cation exchange, SEC); not shown: His6, N-terminal, cleaved

Conditions in all cases: both partners purified
For experiment [1], the target named is B5. The experiment in a line: out-competition dissociation kinetics (fluorescence); pre-formed equimolar complex of MCL-1 and TAMRA-labelled BH3 peptide diluted into 50–400 molar excess of un-labelled PUMABH3; TAMRA fluorescence intensity or polarisation; manual mixing or stopped-flow; buffer without detergent.
In experiment [2] the target is B5. The experiment in a line: stopped-flow association kinetics + other: out-competition dissociation kinetics; affinities of BH3 peptides for MCL-1 in buffer without detergent (Table 1); how Kd was obtained is not told in the text shown.
Experiment [3] addresses B5. The experiment can be described thus: SEC; proteins pre-incubated in detergent (PS20, C12E8 and others, at the multiples of CMC given in the legends); Superdex 200 Increase 10/300 GL, 50 mM sodium phosphate pH 7.0. On the technique in general: In gel filtration, larger molecules generally elute earlier.
Experiment [4] deals with B5. The experiment can be described thus: fluorescence polarisation; kinetics; BAK and MCL-1 pre-incubated in PS20 (20xCMC), then dye-labelled BH3 peptide added; change in TAMRA fluorescence polarisation fitted to a single exponential. For orientation: In fluorescence polarisation assays a small probe gives low polarisation when free and higher when bound to something large.

Experiment [5] concerns the target T1, BAX (UniProt:Q07812, residues 1–171, C62S, C126S) (human, UniProt Q07812 1-171, C62S | C126S).
T1 construct: human BAX, residues 1-171, without the C-terminal transmembrane helix; cysteines mutated to serines; Theoretical mass 18933.65 Da; source: E. coli C41(DE3), purified (chitin resin, intein self-cleavage with DTT, SEC); not shown: intein, C-terminal, cleaved
The experiment in a line: native MS; 5 μM total protein (equimolar), 100 mM ammonium acetate pH 7.0, PS20 5xCMC, at least 3 h at room temperature.

The target in experiment [6] is B4. The experiment can be described thus: SEC; proteins pre-incubated in detergent (PS20, C12E8 and others, at the multiples of CMC given in the legends); Superdex 200 Increase 10/300 GL, 50 mM sodium phosphate pH 7.0.

No end group written: not given here. *: point of attachment. TAMRA = 5-carboxytetramethylrhodamine, CN(C)c1ccc2c(-c3ccc(C(=O)*)cc3C(=O)[O-])c3ccc(=[N+](C)C)cc-3oc2c1

T1 sequence (Q07812 1-171 C62S/C126S, one chain of several): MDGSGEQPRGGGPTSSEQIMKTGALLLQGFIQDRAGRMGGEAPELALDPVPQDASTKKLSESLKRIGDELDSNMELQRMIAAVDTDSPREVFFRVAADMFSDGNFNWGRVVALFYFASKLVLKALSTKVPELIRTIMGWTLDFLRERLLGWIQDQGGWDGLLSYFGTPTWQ

B1: PUMABH3, un-labeled, recombinant (UniProt:Q9BXH1, residues 125–161, M144A) (peptide, UniProt Q9BXH1 125-161, looked up)
peptide: GVRGEEEQWAREIGAQLRRAADDLNAQYERRRQEEQQ
notes: human PUMA BH3, residues 125-161; theoretical mass 4442.75 Da is printed; not shown: His6, N-terminal, cleaved; GB1, N-terminal, cleaved
Regarding B1, the binding result in experiment [1] is “binds”.

B2: BAKBH3, TAMRA-labelled 35-residue peptide (UniProt:Q16611, residues 64–98, P64A) (peptide, UniProt Q16611 64-98, looked up)
peptide: {TAMRA}-ALQPSSTMGQVGRQLAIIGDDINRRYDSEFQTMLQ
notes: source: synthetic peptide, bought: Biomatik
In experiment [1], B2 came in with a koff of 0.00056 s⁻¹. Moreover, in experiment [2], the Kd is 80 pM.

B3: BIDBH3, TAMRA-labelled 35-residue peptide (UniProt:P55957, residues 76–110) (peptide, UniProt P55957 76-110, looked up)
peptide: {TAMRA}-SESQEDIIRNIARHLAQVGDSMDRSIPPGLVNGLA
notes: as for B2
Turning to B3, the binding result in experiment [3] is listed as “binds”.

Turning to B4, the “half-life (displacement of BAK:MCL-1 hetero-dimers by PUMA)” value in experiment [4] was about 17 min. Regarding B5, the binding result in experiment [5] and in experiment [6] was “binds” each time.

As a reminder, the koff is a measure of how fast the partners let go of each other. Read a high koff as a short-lived complex. The Kd is the constant that tells how readily two partners part at equilibrium.

The record behind these values is article doi:10.1101/756874, “Spontaneous oligomerization of BAK/BAX is suppressed by hetero-dimerization with MCL-1” (bioRxiv, 2019).
